± gives the uncertainty stated by the source.
Test: protein stability index of a GFP-peptide fusion (yeast GPS) (PSI 1-4); higher = more stable; sorted into four equal gates, so the index is relative within each strain
Details: doa10∆
Method in brief: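 Tiled 17-residue yeast protein peptides were fused downstream of GFP in a plasmid that also expresses Cherry, and the pooled library was carried in yeast. Mid-log cultures in leucine-free medium were sorted into four equal gates by GFP/Cherry fluorescence ratio, and plasmids from each gate were PCR-amplified and Illumina-sequenced, with reads assigned to strains by barcodes. The protein stability index for each peptide was each gate's read frequency times its gate number, summed.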

Point of comparison: VYESEMEQCKQRYQDLS [YIL149C/MLP2], protein stability index 3.27 ± 0.09. Against it:
- VWAPTQKCFKLTHRLGG [POP1] — lower, 2.2 ± 0.056
- VWFSHPRRFGKGSRQCR [RPS29B] — lower, 3.02 ± 0.1

Same assay, conditions: pdr5∆

Point of comparison: VTNSPLFQTIEKLINNS [ECM29], protein stability index 2.85 ± 0.058. Against it:
- VKEEYDIWQSRDQGNDS [YIL149C/MLP2] — higher, 3.5 ± 0.19
- VKFLVYQGVYSMGSILL [YML031W/NDC1] — lower, 1.43 ± 0.088
- VKIHSQESLLSRTFDKY [SRP72] — within error, 2.79 ± 0.071
- VKIIRKSETSGRYASYR [RPB5] — higher, 3.04 ± 0.05
- VKKASGEIVSINQINEA [RPL20A] — within error, 2.82 ± 0.092
- VKKAVTVHSKSRTRAHA [RPL19A] — higher, 3.2 ± 0.13
- VKNTNANPVVATDPVAA [SWP82] — within error, 2.91 ± 0.1
- VKRYRLAPTQLSAEYLV [SIN4] — lower, 2.23 ± 0.056
- VKSVNDPSQNRLTGSLL [RPC37] — higher, 3.48 ± 0.11
- VKWVHMIIDEGHRMKNA [SNF2] — lower, 1.91 ± 0.075
- VLADALNAINNAEKTGK [RPS22A] — higher, 3.27 ± 0.059
- VLEDCRHLPMYTEFIDS [ITC1] — lower, 2.71 ± 0.075
- VLGTPDQKIWPYLEKYP [SSN3] — lower, 1.72 ± 0.053
- VLIKKGQSAGKLAAIVE [RPL14A] — higher, 3.14 ± 0.16
- VLKTLEYKLATYGVPGS [NUT1] — lower, 2.54 ± 0.066
- VLNEDDLAFGGEANKHH [RPN5] — higher, 3.13 ± 0.089
- VLSINPDMYERKVENIR [MED7] — higher, 3.03 ± 0.086
- VLSQFERSYPSEFANQN [ROX3] — higher, 3.15 ± 0.097
- VLSSVREPDFWVIRKQR [MED6] — higher, 3.44 ± 0.1
- VLTGGYLDQHKRTRLES [SMC3] — lower, 2.04 ± 0.23
- VLTNIEVYRTSLNTKKN [SMC3] — within error, 3.08 ± 0.19
- VLTRMDEDRSKKEEELG [SNF2] — higher, 3.22 ± 0.1
- VLVLHGDKDTRADIVRN [ISW2] — higher, 3.17 ± 0.063
- VLVVRGSKKGQEGKISS [RPL26A] — higher, 3.19 ± 0.099
- VLYYRDARSSRNFSLAI [PRE4] — lower, 2.63 ± 0.12
- VNASVDVDQHGNDNNSD [SWI3] — higher, 3.46 ± 0.081
- VNKVPQNVAGDKTAVKL [SWP82] — higher, 3.04 ± 0.11
- VNLEDNTQDLLLLLSLF [YML103C/NUP188] — within error, 2.7 ± 0.12
- VNLSEVMTVPGIDPTRI [RPO21] — higher, 3.07 ± 0.094
- VNRQSPLFFVDLKLLFN [RGR1] — lower, 1.54 ± 0.074
- VNTMGTGGQTIDNGTGR [MED6] — within error, 3.06 ± 0.24
- VPFESLQGVTYPVLRKL [YIL149C/MLP2] — lower, 2.56 ± 0.075
- VPFIIAAMVIMHLMALH [COB] — lower, 1.31 ± 0.055
- VPIERVAQLKPFFKYID [RPC37] — lower, 2.24 ± 0.054
- VPLSDNAIIEANLGKYG [RPL7A] — lower, 2.25 ± 0.074
- VPLTKRYQHLEKITQIS [PCI8] — lower, 2.22 ± 0.11
- VPNYEVSEKAFLLTQSK [RPN7] — higher, 3.47 ± 0.24
- VPPINCIFNFLQQQTPV [SME1] — lower, 1.58 ± 0.035
- VPSAKPLILTPPQLANQ [SNF11] — lower, 2.26 ± 0.052
- VPSPTGEYVKEPEWVLE [RPO21] — higher, 3.07 ± 0.12
- VPTIGVVNSNFAKEHNA [YJR042W/NUP85] — lower, 2.61 ± 0.075
- VPTKIARGTIEIVSDVK [RPP0] — lower, 2.38 ± 0.055
- VPVIESAGFETDLRLST [SNU114] — within error, 3.12 ± 0.23
- VQEMALGGPITKESQPT [FAS2] — within error, 2.72 ± 0.078
- VQGAAPWDTSLEVGRRF [MCD1] — higher, 3.39 ± 0.13
- VQGMNDDIFIRYLTLLS [ECM29] — lower, 1.39 ± 0.057
- VQKILPLSNEVFEISEN [SWI1] — lower, 1.85 ± 0.039
- VQNLRSWETKLKQNILE [CSN9] — lower, 2.04 ± 0.094
- VQVSKAGGLPMDALTLM [RRP45] — lower, 1.23 ± 0.18
- VRAEELNISGEFFRNKL [RPL16A] — higher, 3.17 ± 0.23
- VREFLEKNYDRKEPPAT [PRE6] — higher, 3.28 ± 0.1
- VREYEQPDANKKKRSRT [ISW2] — higher, 3.31 ± 0.12
- VRIDLGTIDKLQLELTI [RPO31] — lower, 2.21 ± 0.052
- VRLQRQKKILSIRLKVP [RPL8B] — lower, 1.29 ± 0.032
- VRPSISFNESQRGEDDL [RPO21] — within error, 2.81 ± 0.088
- VRSFSKALDELKPEIEK [LRP1] — higher, 3.39 ± 0.074
- VSCYRPRRDGERKRKSV [RPS6A] — within error, 2.91 ± 0.17
- VSDSNDDVRRAAVIALG [RPN2] — higher, 3.26 ± 0.13
- VSECIILGQTMSIGTGS [RPO31] — lower, 2 ± 0.061
- VSETPKRIKGLEFSALS [RPO31] — within error, 2.94 ± 0.12
- VSFNDSQSMVTNKENNI [YIL149C/MLP2] — higher, 3.3 ± 0.076
- VSFNSKQNEQLHVEQLS [SMC3] — within error, 2.72 ± 0.087
- VSKEQFLKDADVECIKA [YJL039C/NUP192] — lower, 1.61 ± 0.059
- VSKQLGNGLVDENKVEA [YAR002W/NUP60] — higher, 3.02 ± 0.068
- VSKVQKRKVLELKKKRK [SRP72] — lower, 2.57 ± 0.13
- VSLCAKNMGLVPMKEEN [SSN2] — lower, 2.38 ± 0.075
- VSLEERTKNLVSKMEKA [SMC4] — within error, 2.95 ± 0.064
- VSLQNFSSSVSLSYMAF [RRP40] — lower, 1.64 ± 0.041
- VSLTQLRCVKYLQETAI [RPC82] — lower, 2.18 ± 0.1
- VSRGQSAVLLETTLGEM [PRP8] — lower, 2.36 ± 0.15
- VSSRVRGYTCQFVDMVL [FAS1] — lower, 1.94 ± 0.07
- VSSSKNKKSEENEMIKP [SWP82] — higher, 3.34 ± 0.14
- VSTETFEQPSQREEAKK [RPL27A] — within error, 2.73 ± 0.07
- VSVLLISKDCSAFACKT [BRR2] — lower, 2.27 ± 0.042
- VTEANIIKLVEGLANDP [RPS12] — within error, 2.76 ± 0.073
- VTEETTKQIQSVRIDGR [SIR4] — higher, 3.06 ± 0.077
- VTHMDQIFVRGSQIKFI [SMD3] — within error, 2.67 ± 0.14
- VTLDITTLTIMRILPRE [RPT4] — lower, 2.25 ± 0.061
- VTLSQLVSVTSTLQHFQ [MED8] — lower, 2.02 ± 0.031
- VTNALDNIDEKVVKAIR [NUT1] — lower, 2.37 ± 0.14
- VTNFNSTNEDQNNSKHT [SRB5] — lower, 2.44 ± 0.15
- VTQSNILSQQFDKIIKI [SRB8] — within error, 2.96 ± 0.071
- VTRTHGNSGVVRATFRN [RPL33A] — within error, 2.82 ± 0.088
- VTSADSNLKISLVKYPE [SWI1] — within error, 2.72 ± 0.073
- VTTCVYLACKVEECPQY [SSN8] — lower, 2.05 ± 0.075
- VTVHSLTGEATANALPL [RPL4A] — within error, 2.76 ± 0.053
- VVAKLEDKRKVRSAEYY [RPL16B] — higher, 3.58 ± 0.11
- VVDFLKRNGSTLEQKVN [FAS1] — higher, 3.03 ± 0.049
- VVEEFTPVVLATPIPEE [RPS5] — lower, 2.27 ± 0.069
- VVGQNQLIDQFEWDISN [SNF5] — lower, 2.62 ± 0.1
- VVIEKRRKKILNEIELD [GRR1] — within error, 2.77 ± 0.1
- VVILARAKALGIKVTNP [RPL32] — higher, 3.2 ± 0.16
- VVLVSGEGERFTVDKKI [SKP1] — higher, 3.6 ± 0.12
- VVNDLVGEKLVVVVLEE [SIR3] — higher, 3.18 ± 0.067
- VVPDLGHLNGHTPTIAS [SSN2] — lower, 2.65 ± 0.055
- VVRNMLALTTLSEPLIK [YCG1] — lower, 1.6 ± 0.059
- VVSAVGEARNDIENKEE [YAR002W/NUP60] — higher, 3.17 ± 0.066
- VVSLKEGMFANANRVFR [SMC2] — higher, 3.11 ± 0.11
